Data reported in the supplement of paper PMC11780869.

Tested on: Bacillus subtilis
Assay: cleaved RNA product abundance (RNA/gDNA barcode ratio) relative to median wild-type variant (ratio to wild type); higher = more accumulation of the downstream cleavage product
Conditions: cleavage site: cggR-gapA (positions -7 to +36 mutated)
Method in brief: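 Sequencing of barcodes from gel-selected, reverse-transcribed cleaved RNA and from genomic DNA, with UMI collapsing, yielded a per-construct RNA:gDNA ratio. Scaled to the median construct with the unmutated site, this ratio is the cleaved product abundance. The barcoded reporters (truncated aprE or tetM mRNAs with mutagenized RNase Y cleavage-site windows) were integrated into the B. subtilis chromosome, and cultures grew in LB at 37°C from OD600 0.0003 to 0.3.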

[1] = experiment (reporter, strain, medium): exp 2b: truncated aprE reporter, strain BJT200
[2] = experiment (reporter, strain, medium): exp 4a: truncated aprE reporter, strain BJT201 with 2% xylose (RNase J1 expressed)
[3] = experiment (reporter, strain, medium): exp 6: tetM reporter, strain 168

Sequence | cleaved RNA product abundance [1] | cleaved RNA product abundance [2] | cleaved RNA product abundance [3]
ACAGACGAAGGAGCCGCAAAGAAGTTATTAAGGGATGAATACTCCCTCAATATAAAAATCTCTCACTTATTTAAA | 0.511 | 0.819 | –
ACAGACGAAGGAGCCGCAAAGAAGTTATTAAGGGATGAATACTCCCTCAATATAAATATCTCTCACTTATTTAAA | 0.565 | 0.732 | 0.566
ACAGACGAAGGAGCCGCAAAGAAGTTATTAAGGGATGAATACTCCCTCAATTTAAATATCTCTCACTTATTTAAA | – | 0.167 | –
ACAGACGAAGGAGCCGCAAAGAAGTTATTAAGGGATGAATACTCCCTCCATATAAATATCTCTCACTTATTTAAA | 0.138 | 0.218 | –
ACAGACGAAGGAGCCGCAAAGAAGTTATTAAGGGATGAATACTCCCTCTATATAAATATCTCTCACTTATTTAAA | 0.275 | 0.259 | –
ACAGACGAAGGAGCCGCAAAGAAGTTATTAAGGGATGAATACTCCCTTAATATAAATATCTCTCACTTATTTAAA | – | 0.47 | –
ACAGACGAAGGAGCCGCAAAGAAGTTATTAAGGGATGAATACTCCGTCAATATAAATATCTCTCACTTATTTAAA | – | 0.126 | –
ACAGACGAAGGAGCCGCAAAGAAGTTATTAAGGGATGAATACTCCTTCAATATAAATATCTCTCACTTATTTAAA | – | 0.253 | –
ACAGACGAAGGAGCCGCAAAGAAGTTATTAAGGGATGAATACTCTCTCAATATAAATATCTCTCACTTATTTAAA | – | 0.226 | –
ACAGACGAAGGAGCCGCAAAGAAGTTATTAAGGGATGAATACTGCCTCAATATAAATATCTCTCACTTATTTAAA | 0.112 | – | –
ACAGACGAAGGAGCCGCAAAGAAGTTATTAAGGGATGAATACTTCCTCAATATAAATATCTCTCACTTATTTAAA | 0.156 | 0.247 | –
ACAGACGAAGGAGCCGCAAAGAAGTTATTAAGGGATGAATAGTCCCTAAATATAAATATCTCTCACTTATTTAAA | – | 0.547 | –
ACAGACGAAGGAGCCGCAAAGAAGTTATTAAGGGATGAATAGTCCCTCAAAATAAATATCTCTCACTTATTTAAA | – | 0.31 | –
ACAGACGAAGGAGCCGCAAAGAAGTTATTAAGGGATGAATAGTCCCTCAATATAAAAATCTCTCACTTATTTAAA | – | 1 | –
ACAGACGAAGGAGCCGCAAAGAAGTTATTAAGGGATGAATAGTCCCTCAATATAAATATCTCTCACTTATTTAAA | 0.912 | 0.857 | 1.25
ACAGACGAAGGAGCCGCAAAGAAGTTATTAAGGGATGAATAGTCCCTCATTATAAATATCTCTCACTTATTTAAA | – | 0.235 | –
ACAGACGAAGGAGCCGCAAAGAAGTTATTAAGGGATGAATAGTCCCTGAATATAAATATCTCTCACTTATTTAAA | – | 0.334 | –
ACAGACGAAGGAGCCGCAAAGAAGTTATTAAGGGATGAATAGTCCTTCAATATAAATATCTCTCACTTATTTAAA | – | 0.359 | –
ACAGACGAAGGAGCCGCAAAGAAGTTATTAAGGGATGAATATACCCTCAATATAAATATCTCTCACTTATTTAAA | – | 0.485 | –
ACAGACGAAGGAGCCGCAAAGAAGTTATTAAGGGATGAATATCCCCTCAATATAAATATCTCTCACTTATTTAAA | – | 0.455 | –

Sequence | cleaved RNA product abundance [1] | cleaved RNA product abundance [2] | cleaved RNA product abundance [3]
ACAGACGAAGGAGCCGCAAAGAAGTTATTAAGGGATGAATATGCCCTCAATATAAATATCTCTCACTTATTTAAA | – | 0.363 | –
ACAGACGAAGGAGCCGCAAAGAAGTTATTAAGGGATGAATATTCACTCAATATAAATATCTCTCACTTATTTAAA | – | 0.18 | –
ACAGACGAAGGAGCCGCAAAGAAGTTATTAAGGGATGAATATTCCATCAATATAAATATCTCTCACTTATTTAAA | 0.141 | 0.312 | –
ACAGACGAAGGAGCCGCAAAGAAGTTATTAAGGGATGAATATTCCCACAATATAAATATCTCTCACTTATTTAAA | 0.177 | 0.178 | –
ACAGACGAAGGAGCCGCAAAGAAGTTATTAAGGGATGAATATTCCCGCAATATAAATATCTCTCACTTATTTAAA | – | 0.221 | –
ACAGACGAAGGAGCCGCAAAGAAGTTATTAAGGGATGAATATTCCCTAAATATAAATATCTCTCACTTATTTAAA | – | 0.462 | –
ACAGACGAAGGAGCCGCAAAGAAGTTATTAAGGGATGAATATTCCCTCAAAATAAATATCTCTCACTTATTTAAA | 0.231 | 0.224 | –
ACAGACGAAGGAGCCGCAAAGAAGTTATTAAGGGATGAATATTCCCTCAAGATAAATATCTCTCACTTATTTAAA | 0.254 | 0.243 | –
ACAGACGAAGGAGCCGCAAAGAAGTTATTAAGGGATGAATATTCCCTCAATAAAAATATCTCTCACTTATTTAAA | – | 0.156 | –
ACAGACGAAGGAGCCGCAAAGAAGTTATTAAGGGATGAATATTCCCTCAATATAAATATCTCTCACTTATTTAAA | 0.675 | 0.699 | 0.84
ACAGACGAAGGAGCCGCAAAGAAGTTATTAAGGGATGAATATTCCCTCAATATAAATCTCTCTCACTTATTTAAA | – | 0.471 | –
ACAGACGAAGGAGCCGCAAAGAAGTTATTAAGGGATGAATATTCCCTCACTATAAATATCTCTCACTTATTTAAA | 0.121 | – | –
ACAGACGAAGGAGCCGCAAAGAAGTTATTAAGGGATGAATATTCCCTCATTATAAATATCTCTCACTTATTTAAA | – | 0.316 | –
ACAGACGAAGGAGCCGCAAAGAAGTTATTAAGGGATGAATATTCCCTCCATATAAATATCTCTCACTTATTTAAA | – | 0.193 | –
ACAGACGAAGGAGCCGCAAAGAAGTTATTAAGGGATGAATATTCCCTTAATATAAATATCTCTCACTTATTTAAA | 1.01 | 0.526 | –
ACAGACGAAGGAGCCGCAAAGAAGTTATTAAGGGATGAATATTCCGTCAATATAAATATCTCTCACTTATTTAAA | – | 0.194 | –
ACAGACGAAGGAGCCGCAAAGAAGTTATTAAGGGATGAATATTCCTTCAATATAAATATCTCTCACTTATTTAAA | – | 0.546 | –
ACAGACGAAGGAGCCGCAAAGAAGTTATTAAGGGATGAATATTCGCTCAATATAAATATCTCTCACTTATTTAAA | – | 0.086 | –
ACAGACGAAGGAGCCGCAAAGAAGTTATTAAGGGATGAATATTCTCTCAATATAAATATCTCTCACTTATTTAAA | 0.265 | 0.343 | –
ACAGACGAAGGAGCCGCAAAGAAGTTATTAAGGGATGAATATTGCCTCAATATAAATATCTCTCACTTATTTAAA | – | 0.107 | –

Sequence | cleaved RNA product abundance [1] | cleaved RNA product abundance [2] | cleaved RNA product abundance [3]
ACAGACGAAGGAGCCGCAAAGAAGTTATTAAGGGATGAATATTTCCTCAATATAAATATCTCTCACTTATTTAAA | 0.188 | 0.186 | –
ACAGACGAAGGAGCCGCAAAGAAGTTATTAAGGGATGAATCAGCCCTCAATATAAATATCTCTCACTTATTTAAA | – | 0.813 | –
ACAGACGAAGGAGCCGCAAAGAAGTTATTAAGGGATGAATCATACCTCAATATAAATATCTCTCACTTATTTAAA | 0.164 | 0.215 | –
ACAGACGAAGGAGCCGCAAAGAAGTTATTAAGGGATGAATCATCCATCAATATAAATATCTCTCACTTATTTAAA | – | 0.219 | –
ACAGACGAAGGAGCCGCAAAGAAGTTATTAAGGGATGAATCATCCCACAATATAAATATCTCTCACTTATTTAAA | 0.21 | 0.192 | –
ACAGACGAAGGAGCCGCAAAGAAGTTATTAAGGGATGAATCATCCCCCAATATAAATATCTCTCACTTATTTAAA | – | 0.296 | –
ACAGACGAAGGAGCCGCAAAGAAGTTATTAAGGGATGAATCATCCCTAAATATAAATATCTCTCACTTATTTAAA | 0.597 | 1 | –
ACAGACGAAGGAGCCGCAAAGAAGTTATTAAGGGATGAATCATCCCTCAAGATAAATATCTCTCACTTATTTAAA | – | 0.27 | –
ACAGACGAAGGAGCCGCAAAGAAGTTATTAAGGGATGAATCATCCCTCAATAAAAATATCTCTCACTTATTTAAA | – | 0.197 | –
ACAGACGAAGGAGCCGCAAAGAAGTTATTAAGGGATGAATCATCCCTCAATATAAATAACTCTCACTTATTTAAA | – | 0.573 | –
ACAGACGAAGGAGCCGCAAAGAAGTTATTAAGGGATGAATCATCCCTCAATATAAATATCTCTCACTTATTTAAA | 0.721 | 0.902 | 0.917
ACAGACGAAGGAGCCGCAAAGAAGTTATTAAGGGATGAATCATCCCTCAATTTAAATATCTCTCACTTATTTAAA | 0.169 | – | –
ACAGACGAAGGAGCCGCAAAGAAGTTATTAAGGGATGAATCATCCCTCACTATAAATATCTCTCACTTATTTAAA | – | 0.22 | –
ACAGACGAAGGAGCCGCAAAGAAGTTATTAAGGGATGAATCATCCCTTAATATAAATATCTCTCACTTATTTAAA | – | 0.46 | –
ACAGACGAAGGAGCCGCAAAGAAGTTATTAAGGGATGAATCATCTCTCAATATAAATATCTCTCACTTATTTAAA | – | 0.595 | –
ACAGACGAAGGAGCCGCAAAGAAGTTATTAAGGGATGAATCATGCCTCAATATAAATATCTCTCACTTATTTAAA | 0.164 | 0.251 | –
ACAGACGAAGGAGCCGCAAAGAAGTTATTAAGGGATGAATCTTCCCTCAATATAAATATCTCTCACTTATTTAAA | – | 1.05 | –
ACAGACGAAGGAGCCGCAAAGAAGTTATTAAGGGATGAATGATCCATCAATATAAATATCTCTCACTTATTTAAA | – | 0.259 | –
ACAGACGAAGGAGCCGCAAAGAAGTTATTAAGGGATGAATGATCCCACAATATAAATATCTCTCACTTATTTAAA | 0.121 | 0.101 | –
